# Experimental data reported in patent US10792311B2, “Stimulation of ovarian follicle development and oocyte maturation” (The Board of Trustees of the Leland Stanford Junior …, priority 2011, dated 2020).
# Experiments:
# [1] = system: preantral follicles; assay: Preantral follicle culture; format: cell-based, mice; conditions: preantral follicles of day 13 mice, four days
# Source text: CNP treatment promoted the growth of preantral follicles and cultured ovarian explants: Preantral follicles (125-135 um in diameter) were isolated from ovaries of mice at day 13 of age and treated with different hormones for four days with daily monitoring of follicle diameters. […] In contrast, treatment with ANP was ineffective.
# Dissection follicles of different sizes and culturing of preantral follicles: For RT-PCR analyses, early secondary follicles of 90-140 um in diameters were isolated from mice at day 13 of age whereas antral follicles (300-400 um in diameter) were isolated from prepubertal mice at day 23 of age. Preovulatory follicles (500-600 um in diameter) were isolated from prepubertal mice treated with eCG (5 IU). For follicle cultures, preantral follicles (125-145 um in diameter) were isolated from mice at day 13 of age and cultured individually in 96 well plates containing alpha-MEM (100 ul/well) with penicillin and streptomycin together with insulin, transferrin and selenium. […] The media were changed every two days and follicle growth was monitored daily by measuring follicle diameters.
# [2] = system: ovaries from day 10 mice; assay: Ovarian explant cultures treated with CNP and/or FSH; format: cell-based
# Experimental: Ovarian explant cultures: Ovaries from day 10 mice were placed on culture plate inserts (Millipore, Bedford, Mass.) and cultured in 400 μl of DMEM/F12 containing 0.1% BSA (Sigma), 0.1% Albumax II, insulin-transferrin-selenium, 0.05 mg/ml L-ascorbic acid and penicillin-streptomycin under the membrane insert to cover ovaries with a thin layer of medium. […] Some explants were also treated with a pan-specific protein kinase G inhibitor, Rp-8-Br-PET-cGMPS (BioLog, Bremen, Germany). At the end of culture, ovaries were fixed in Bouin's solution, paraffin embedded, and cut into continuous sections before staining with hematoxylin and eosin.
# [3] = system: canonical Wnt signaling pathway; assay: TCF-luciferase assay in cultured ovarian somatic cells; format: cell-based; conditions: somatic cells of day 10 mice; for TCF-luciferase activity: agent alone
# Experimental: TCF-luciferase assay: Ovarian somatic cells from day 10 mice were cultured overnight at 37 C in McCoy's 5a medium containing 10% fetal bovine serum (FBS; Gibco) before evaluation of Wnt signaling based on the TCF-luciferase assay. Cells were transfected with 1 μg of pTOP FLASH or pFOP FLASH plasmid together with 0.1 μg of pRL-TK plasmid using lipofectamine 2000 (Invitrogen, Carlsbad, Calif.) for 6 h. […] Luciferase activity expressed as relative light unit was determined using a Dual Luciferase Reporter Assay Kit (Promega) with a luminometer (Bio-Rad).
# Luciferase activity was measured as an index of Wnt signaling. […] To estimate the number of viable cells, cells were also cultured with increasing doses of R-spondin2 with or without Wnt3a before measurement of mitochondrial reductase (MTS) activity.
# [4] = system: somatic cells obtained from day 10 ovaries; assay: Cell proliferation (MTS) assay of ovarian somatic cells; format: cell-based, mice; conditions: for MTS activity (viable cell number): agent alone, 2 days
# Experimental: Cell proliferation assay: Ovaries obtained from day 10 mice were digested with collagenase I, DNase, and trypsin. After centrifuging at 270×g for 10 min., cell pellet was washed and plated in a 96-well plate (BD Falcon, Franklin Lakes, N.J.) in McCoy's 5a medium (Gibco BRL, Grand Island, N.Y.) containing 4 mg/ml BSA (Sigma Aldrich Chemicals, St. Louis, Mo.), penicillin-streptomycin (Gibco) and sodium pyruvate (Gibco) for 3 h at 37 C. After washing twice with PBS to remove floating oocytes, cells were cultured in serum-free McCoy's 5a medium containing different factors for 48 h. MTS (3-(4,5-dimethylthiazol-2-yl)-5-(3-carboxymethoxyphenyl)-2-(4-sulfophenyl)-2H-tetrazolium) assay was performed using Cell Titer 96 Aqueous One Solution Cell Proliferation Assay (Promega, Madison, Wis.) by adding the substrate for 2 h before measuring absorbance at 490 nm.
# [5] = system: ovaries from day 10 mice; assay: Ovarian explant cultures treated with R-spondin2 and/or FSH; format: cell-based
# Experimental: Ovarian explant cultures: Ovaries from day 10 mice were placed on culture plate insert (Millipore, Bedford, Mass.) and cultured in 400 μl of DMEM/F12 (Gibco) containing 0.1% BSA (Sigma), 0.1% Albumax II (Gibco), insulin-transferrin-selenium (Gibco), 0.05 mg/ml L-ascorbic acid (Sigma) and penicillin-streptomycin (Gibco) under the membrane insert to cover ovaries with a thin layer of medium. […] Explants treated with non-immune IgG or boiled (100 C, 15 min) R-spondin2 antibodies served as negative controls. At the end of culture, ovaries were fixed in Bouin's solution, paraffin embedded, and cut into continuous sections before staining with hematoxylin and eosin. Only follicles with clearly stained oocyte nucleus were counted to prevent recounting of the same follicle.
# [6] = system: intestinal stem cell; conditions: 100 μg/adult mice; cited from earlier work
# [7] = treatment with R-spondin2 and/or FSH
molecule,measurement,setting,value
"Nc1nc2c(nc(Br)n2[C@@H]2O[C@@H]3COP(=O)(O)O[C@H]3[C@H]2O)c(=O)[nH]1 [8-bromo-cGMP, reference compound]",Follicle size (diameter),[1],induced
"CC[C@H](C)[C@@H]1NC(=O)[C@H](CCCNC(=N)N)NC(=O)[C@H](CC(=O)O)NC(=O)[C@H](CCSC)NC(=O)[C@H](CCCNC(=N)N)NC(=O)CNC(=O)CNC(=O)[C@H](Cc2ccccc2)NC(=O)[C@@H](NC(=O)[C@H](CO)NC(=O)[C@H](CO)NC(=O)[C@H](CCCNC(=N)N)NC(=O)[C@H](CCCNC(=N)N)NC(=O)[C@H](CC(C)C)NC(=O)[C@@H](N)CO)CSSC[C@@H](C(=O)N[C@@H](CC(N)=O)C(=O)N[C@@H](CO)C(=O)N[C@@H](Cc2ccccc2)C(=O)N[C@@H](CCCNC(=N)N)C(=O)N[C@@H](Cc2ccc(O)cc2)C(=O)O)NC(=O)CNC(=O)[C@H](CC(C)C)NC(=O)CNC(=O)[C@H](CO)NC(=O)[C@H](CCC(N)=O)NC(=O)[C@H](C)NC(=O)CNC1=O [ANP, reference compound]",Follicle size (diameter),[1],ineffective
same,Ovarian weights of explants,"[2]; day 10 ovaries, 4 days culture",not
"O=c1c2nc(Br)n([C@@H]3O[C@@H]4CO[P@@](O)(=S)O[C@H]4[C@H]3O)c2nc2[nH]c(-c3ccccc3)cn12 [Rp-8-Br-PET-cGMPs, Rp-8-Br-PET-cGMPS, reference compound]",Effect on stimulatory effects of CNP on ovarian weight,[2]; explant culture,blocked the stimulatory effects of CNP
same,Effect on effects of a high dose of FSH on ovarian weight,"[2]; explant culture, FSH 100 ng/ml",partially suppressed the effects of a high dose of FSH
"Wnt3a: Wnt ligand (protein, UniProt P56704 19-352, looked up) Protein Wnt-3a: SYPIWWSLAVGPQYSSLGSQPILCASIPGLVPKQLRFCRNYVEIMPSVAEGIKIGIQECQHQFRGRRWNCTTVHDSLAIFGPVLDKATRESAFVHAIASAGVAFAVTRSCAEGTAAICGCSSRHQGSPGKGWKWGGCSEDIEFGGMVSREFADARENRPDARSAMNRHNNEAGRQAIASHMHLKCKCHGLSGSCEVKTCWWSQPDFRAIGDFLKDKYDSASEMVVEKHRESRGWVETLRPRYTYFKVPTERDLVYYEASPNFCEPNPETGSFGTRDRTCNVSSHGIDGCDLLCCGRGHNARAERRREKCRCVFHWCCYVSCQECTRVYDVHTCK",TCF-luciferase activity,[3]; 18 h,minimal stimulation
same,MTS activity (viable cell number),[4],stimulated MTS activity in a dose-dependent manner
"DKK1: Dickkopf1, a Wnt signaling antagonist (protein, UniProt O94907 32-266, looked up) Dickkopf-related protein 1: TLNSVLNSNAIKNLPPPLGGAAGHPGSAVSAAPGILYPGGNKYQTIDNYQPYPCAEDEECGTDEYCASPTRGGDAGVQICLACRKRRKRCMRHAMCCPGNYCKNGICVSSDQNHFRGEIEETITESFGNDHSTLDGYSRRTTLSSKMYHTKGQEGSVCLRSSDCASGLCCARHFWSKICKPVLKEGQVCTKHRRKGSHGLEIFQRCYCGEGLSCRIQKDHHQASNSSRLHTCQRH",Effect on R-spondin2- and Wnt3a-stimulated TCF-luciferase activity,[3],blocked the stimulatory effects
same,Effect on stimulatory effects of FSH on ovarian growth,[5]; explant cultures,not blocked
"R-spondin2: secreted protein that regulates beta-catenin; oocyte-derived paracrine factor; recombinant human R-spondin2 (protein, UniProt Q6UXX9 22-243, looked up) R-spondin-2: QGNRWRRSKRASYVSNPICKGCLSCSKDNGCSRCQQKLFFFLRREGMRQYGECLHSCPSGYYGHRAPDMNRCARCRIENCDSCFSKDFCTKCKVGFYLHRGRCFDECPDGFAPLEETMECVEGCEVGHWSEWGTCSRNNRTCGFKWGLETRTRQIVKKPVKDTILCPTIAESRRCKMTMRHCPGGKRTPKAKEKRNKKKKRKLIERAQEQHSVFLATDRANQ",TCF-luciferase activity in the presence of both Wnt3a and R-spondin2,"[3]; 18 h, combined with Wnt3a",synergistic increases
same,TCF-luciferase activity,[3]; 18 h,minimal stimulation
same,MTS activity (viable cell number),[4],stimulated MTS activity in a dose-dependent manner
same,MTS activity with both Wnt3a and R-Spondin2,[4]; combined with Wnt3a,further increases in MTS activity
same,Ovarian follicle development (morphological analyses),[5]; 4 days culture,promotion of ovarian follicle development
same,"Ovarian weight of explants, R-spondin2 and FSH added together","[5]; 4 days culture, combined with FSH",further increases
same,Ovarian weight of explants,"[5]; day 10 ovaries, 4 days culture",increased ovarian weight in a dose-dependent manner
same,Percentage of primordial and degenerated follicles,[5]; [7],negligible changes
same,Ratio of primary and percentage of secondary follicles,[5]; [7],decreased the ratio of primary follicles accompanied by increases in the percentage of secondary follicles
"R-spondin1: secreted glycoprotein of the R-spondin family that synergizes with Wnts to activate β-catenin-dependent signaling (protein, UniProt Q2MKA7 21-263, looked up) R-spondin-1: SRGIKGKRQRRISAEGSQACAKGCELCSEVNGCLKCSPKLFILLERNDIRQVGVCLPSCPPGYFDARNPDMNKCIKCKIEHCEACFSHNFCTKCKEGLYLHKGRCYPACPEGSSAANGTMECSSPAQCEMSEWSPWGPCSKKQQLCGFRRGSEERTRRVLHAPVGDHAACSDTKETRRCTVRRVPCPEGQKRRKGGQGRRENANRNLARKESKEAGAGSRRRKGQQQQQQQGTVGPLTSAGPA",Intestinal stem cell proliferation and intestinal growth,[6],stimulate intestinal stem cell proliferation and intestinal growth
